Tests used:
[1] = target: T1, GTPase-activating protein 1 (aa 1413-1567) (UniProt P46940 1413-1567); assay: yeast two-hybrid
T1 construct: range 1413-1567; also called IQGAP1; IQGAP
T1 sequence (looked up): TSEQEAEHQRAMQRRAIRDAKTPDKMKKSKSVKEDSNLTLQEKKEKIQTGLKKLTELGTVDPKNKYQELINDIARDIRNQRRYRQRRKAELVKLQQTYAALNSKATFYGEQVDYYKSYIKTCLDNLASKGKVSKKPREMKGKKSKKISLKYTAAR

[2] = target: T2, GTPase-activating protein 1 (aa 1308-1606) (UniProt P46940 1308-1606); assay: yeast two-hybrid
T2 construct: range 1308-1606; also called IQGAP1; IQGAP
T2 sequence (looked up): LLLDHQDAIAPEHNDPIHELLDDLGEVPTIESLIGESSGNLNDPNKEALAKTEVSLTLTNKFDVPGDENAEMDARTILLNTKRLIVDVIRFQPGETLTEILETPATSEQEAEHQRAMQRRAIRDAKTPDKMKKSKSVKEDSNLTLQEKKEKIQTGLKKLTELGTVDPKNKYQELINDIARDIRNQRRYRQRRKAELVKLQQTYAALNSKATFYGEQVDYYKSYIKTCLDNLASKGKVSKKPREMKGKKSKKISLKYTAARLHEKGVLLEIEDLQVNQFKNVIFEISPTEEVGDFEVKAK

[3] = target: T3, GTPase-activating protein 1 (aa 1299-1555) (UniProt P46940 1299-1555); assay: yeast two-hybrid
T3 construct: range 1299-1555; also called IQGAP1; IQGAP
T3 sequence (looked up): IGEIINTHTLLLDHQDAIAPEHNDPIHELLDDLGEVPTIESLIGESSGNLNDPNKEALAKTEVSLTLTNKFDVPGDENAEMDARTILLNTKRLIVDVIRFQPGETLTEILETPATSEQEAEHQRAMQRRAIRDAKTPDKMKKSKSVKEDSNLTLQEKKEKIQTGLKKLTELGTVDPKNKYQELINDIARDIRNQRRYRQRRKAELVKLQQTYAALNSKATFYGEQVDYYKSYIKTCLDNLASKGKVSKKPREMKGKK

[4] = target: T4, pallid (aa 21-172) (UniProt Q9UL45 21-172); assay: yeast two-hybrid
T4 construct: range 21-172
T4 sequence (looked up): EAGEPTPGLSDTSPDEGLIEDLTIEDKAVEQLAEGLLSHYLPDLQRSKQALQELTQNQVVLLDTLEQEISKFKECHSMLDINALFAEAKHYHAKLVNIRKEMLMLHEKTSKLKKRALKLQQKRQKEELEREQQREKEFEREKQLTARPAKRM

[5] = target: T5, mitotic spindle coiled-coil related protein (aa 701-1082) (UniProt Q96R06 701-1082); assay: yeast two-hybrid
T5 construct: range 701-1082
T5 sequence (looked up): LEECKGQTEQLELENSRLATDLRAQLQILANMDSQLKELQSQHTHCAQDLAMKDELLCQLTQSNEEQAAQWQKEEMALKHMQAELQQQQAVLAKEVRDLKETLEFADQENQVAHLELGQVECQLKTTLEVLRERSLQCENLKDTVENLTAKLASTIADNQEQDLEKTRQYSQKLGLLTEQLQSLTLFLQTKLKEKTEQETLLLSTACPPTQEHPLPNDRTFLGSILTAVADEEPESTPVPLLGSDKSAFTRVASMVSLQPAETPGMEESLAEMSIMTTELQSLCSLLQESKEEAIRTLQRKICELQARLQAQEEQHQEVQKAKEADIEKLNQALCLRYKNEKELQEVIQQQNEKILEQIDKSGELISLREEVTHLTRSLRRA

[6] = target: T6, mitotic spindle coiled-coil related protein (aa 723-1012) (UniProt Q96R06 723-1012); assay: yeast two-hybrid
T6 construct: range 723-1012
T6 sequence (looked up): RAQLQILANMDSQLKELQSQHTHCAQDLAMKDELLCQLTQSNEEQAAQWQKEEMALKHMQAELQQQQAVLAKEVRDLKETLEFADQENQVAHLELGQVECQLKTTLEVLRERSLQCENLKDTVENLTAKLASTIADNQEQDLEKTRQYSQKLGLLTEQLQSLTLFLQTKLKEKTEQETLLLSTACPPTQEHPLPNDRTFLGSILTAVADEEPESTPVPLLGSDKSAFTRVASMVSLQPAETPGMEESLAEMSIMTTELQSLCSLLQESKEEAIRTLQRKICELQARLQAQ

[7] = target: T7, catenin, GenBank U96136 (aa 684-1148) (UniProt Q9UQB3 684-1148); assay: yeast two-hybrid
T7 construct: range 684-1148
T7 sequence (looked up): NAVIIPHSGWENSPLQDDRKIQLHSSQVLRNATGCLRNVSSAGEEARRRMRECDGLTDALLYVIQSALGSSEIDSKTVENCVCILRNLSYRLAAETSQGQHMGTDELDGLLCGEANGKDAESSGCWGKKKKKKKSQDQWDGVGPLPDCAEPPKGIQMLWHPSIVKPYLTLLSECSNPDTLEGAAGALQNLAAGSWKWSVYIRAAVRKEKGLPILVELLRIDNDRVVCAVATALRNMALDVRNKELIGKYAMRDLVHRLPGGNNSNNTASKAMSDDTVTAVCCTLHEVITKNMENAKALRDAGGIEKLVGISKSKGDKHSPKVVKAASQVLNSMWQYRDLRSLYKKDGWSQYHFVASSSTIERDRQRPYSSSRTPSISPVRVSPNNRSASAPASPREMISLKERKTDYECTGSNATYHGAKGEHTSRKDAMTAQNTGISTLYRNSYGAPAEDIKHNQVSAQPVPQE

[8] = target: T8, VPS28 protein (aa 27-221) (human, UniProt Q9UK41 27-221); assay: yeast two-hybrid, breast and prostate cancer library, bait Tsg101 240-391
T8 sequence (looked up): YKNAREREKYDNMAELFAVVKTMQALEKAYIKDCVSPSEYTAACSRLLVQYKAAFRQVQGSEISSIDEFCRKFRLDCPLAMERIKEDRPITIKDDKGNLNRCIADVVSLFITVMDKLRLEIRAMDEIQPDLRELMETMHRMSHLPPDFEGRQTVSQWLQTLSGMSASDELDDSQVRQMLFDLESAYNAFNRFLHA

Measured: binding result

B1: Tsg101 (aa 240-391) (other, human, UniProt Q99816 240-390, looked up)
chain: WRMKEEMDRAQAELNALKRTEEDLKKGHQKLEEMVTRLDQEVAEVDKNIELLKKKDEELSSALEKMENQSENNDIDEVIIPTAPLYKQILNLYAEENAIEDTIFYLGEALRRGVIDLDVFLKHVRLLSRKQFQLRALMQKARKTAGLSDLY
notes: range 240-391; also called C-terminal fragment of Tsg101; amino acid residues 240-390
binds: all assays above
